Measured values taken from US20240084017A1.

Legend:
[1] = target: human Mac-1 (integrin αMβ2, CD11b/CD18) (human) (UniProt P11215); experiment: flow cytometry, HEK293/Mac-1 cells (clone 1-4), PBS (Mock)
[2] = target: human Mac-1 (integrin αMβ2, CD11b/CD18) (human) (UniProt P11215); experiment: flow cytometry, HEK293/Mac-1 cells (clone 1-4), PBS/MnCl2 (Mn2+)
[3] = target: human Mac-1 (integrin αMβ2, CD11b/CD18) (human) (UniProt P11215); experiment: flow cytometry, HEK293/Mac-1 cells; MFI in PBS over MFI in PBS/MnCl2
[4] = target: human Mac-1 (integrin αMβ2, CD11b/CD18) (human) (UniProt P11215); experiment: flow cytometry, HEK293/Mac-1 cells, PBS (Mock), 10 µg/ml of this antibody; binding of reporter mAb m24 read
[5] = target: human Mac-1 (integrin αMβ2, CD11b/CD18) (human) (UniProt P11215); experiment: flow cytometry, HEK293/Mac-1 cells, PBS/MnCl2 (Mn2+), 10 µg/ml of this antibody; binding of reporter mAb m24 read
[6] = target: human Mac-1 (integrin αMβ2, CD11b/CD18) (human) (UniProt P11215); experiment: flow cytometry, HEK293/Mac-1 cells, PBS (Mock), 10 µg/ml of this antibody; binding of reporter mAb KIM127 read
[7] = target: human Mac-1 (integrin αMβ2, CD11b/CD18) (human) (UniProt P11215); experiment: flow cytometry, HEK293/Mac-1 cells, PBS/MnCl2 (Mn2+), 10 µg/ml of this antibody; binding of reporter mAb KIM127 read
[8] = target: human Mac-1 (integrin αMβ2, CD11b/CD18) (human) (UniProt P11215); experiment: flow cytometry, HEK293/Mac-1 cells, PBS/MnCl2 (Mn2+); binding of reporter mAb m24 read; control IgG4, the reference set to 1
[9] = target: human Mac-1 (integrin αMβ2, CD11b/CD18) (human) (UniProt P11215); experiment: flow cytometry, HEK293/Mac-1 cells, PBS (Mock); binding of reporter mAb KIM127 read; control IgG4, the reference set to 1
[10] = target: human Mac-1 (integrin αMβ2, CD11b/CD18) (human) (UniProt P11215); experiment: flow cytometry, HEK293/Mac-1 cells, PBS/MnCl2 (Mn2+); binding of reporter mAb KIM127 read; control IgG4, the reference set to 1
[11] = target: human Mac-1 (integrin αMβ2, CD11b/CD18) (human) (UniProt P11215); experiment: flow cytometry, HEK293/Mac-1 cells, PBS (Mock); binding of reporter mAb m24 read; control IgG4, the reference set to 1
[12] = target: human Mac-1 (integrin αMβ2, CD11b/CD18) (human) (UniProt P11215); experiment: flow cytometry, HEK293/Mac-1 cells (clone 1-4), PBS (Mock); isotype control
[13] = target: human Mac-1 (integrin αMβ2, CD11b/CD18) (human) (UniProt P11215); experiment: flow cytometry, HEK293/Mac-1 cells (clone 1-4), PBS/MnCl2 (Mn2+); isotype control
[14] = target: human Mac-1 (integrin αMβ2, CD11b/CD18) (human) (UniProt P11215); experiment: flow cytometry, HEK293/Mac-1 cells; MFI in PBS over MFI in PBS/MnCl2; isotype control

Substance: CD11b activation-sensing mAb (CBRM1/5) (antibody)
- Mock MFI [1]: 143000 MFI
- Mn^2+ MFI [2]: 181000 MFI
- Mock/Mn^2+ Ratio [3]: 0.79

Substance: CD11b specific mAb (clone ICRF44) (antibody)
- m24 (Expression relative to IgG4) (relative to IgG4) [4]: 0.66
- m24 (Expression relative to IgG4) (relative to IgG4) [5]: 0.66
- Mock MFI [1]: 805000 MFI
- Mn^2+ MFI [2]: 801000 MFI
- KIM127 (Expression relative to IgG4) (relative to IgG4) [6]: 0.94
- KIM127 (Expression relative to IgG4) (relative to IgG4) [7]: 0.75
- Mock/Mn^2+ Ratio [3]: 1.01

Substance: IgG4 control (antibody)
- m24 (Expression relative to IgG4) (relative to IgG4) [8]: 1
- KIM127 (Expression relative to IgG4) (relative to IgG4) [9]: 1
- KIM127 (Expression relative to IgG4) (relative to IgG4) [10]: 1
- m24 (Expression relative to IgG4) (relative to IgG4) [11]: 1

Substance: M1/70 (antibody)
- m24 (Expression relative to IgG4) (relative to IgG4) [4]: 0.71
- m24 (Expression relative to IgG4) (relative to IgG4) [5]: 0.8
- KIM127 (Expression relative to IgG4) (relative to IgG4) [6]: 0.94
- KIM127 (Expression relative to IgG4) (relative to IgG4) [7]: 0.84

Substance: isotype control IgG (antibody)
- Mock MFI [12]: 941 MFI
- Mn^2+ MFI [13]: 935 MFI
- Mock/Mn^2+ Ratio [14]: 1.01
